Data published in patent US20030118612A1 (MAXYGEN, published 2003).

T1: human G-CSF receptor (human, UniProt Q99062 25-836)
T1 sequence (looked up): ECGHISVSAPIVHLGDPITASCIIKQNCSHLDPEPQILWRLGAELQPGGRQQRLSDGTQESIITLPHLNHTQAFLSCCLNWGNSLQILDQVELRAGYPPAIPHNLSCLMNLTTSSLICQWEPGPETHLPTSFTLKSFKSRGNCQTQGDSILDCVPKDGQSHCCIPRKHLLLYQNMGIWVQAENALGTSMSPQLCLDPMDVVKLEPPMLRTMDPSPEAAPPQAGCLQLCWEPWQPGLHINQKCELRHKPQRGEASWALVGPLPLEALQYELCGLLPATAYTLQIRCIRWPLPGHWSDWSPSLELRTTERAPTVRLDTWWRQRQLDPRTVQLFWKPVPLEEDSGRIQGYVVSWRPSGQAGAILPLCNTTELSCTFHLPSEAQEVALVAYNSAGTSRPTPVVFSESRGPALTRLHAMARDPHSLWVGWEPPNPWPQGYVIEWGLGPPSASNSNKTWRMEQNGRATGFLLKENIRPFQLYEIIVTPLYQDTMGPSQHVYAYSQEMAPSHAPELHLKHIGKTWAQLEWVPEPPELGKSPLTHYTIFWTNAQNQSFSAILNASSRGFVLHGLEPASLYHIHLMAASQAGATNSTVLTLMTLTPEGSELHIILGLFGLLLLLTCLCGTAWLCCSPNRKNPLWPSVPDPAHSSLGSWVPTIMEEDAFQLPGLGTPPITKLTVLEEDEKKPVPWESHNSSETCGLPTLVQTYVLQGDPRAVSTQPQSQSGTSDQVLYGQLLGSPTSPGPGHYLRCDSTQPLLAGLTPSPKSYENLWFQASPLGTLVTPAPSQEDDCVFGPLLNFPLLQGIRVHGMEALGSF


Biological target: T1, human G-CSF receptor
Assay: cell-based or functional assay

Row | Binder | EC50 (% of hG-CSF) conjugated to SPA-PEG 5000 | EC50 (% of hG-CSF) non-conjugated
1 | G-CSF variant K16/34/40R T105K Q120K T133K conjugated to SPA-PEG 5000 (ligand, SPA-PEG 5000 conjugated to the available PEGylation sites) TPLGPASSLPQSFLLRCLEQVRKIQGDGAALQERLCATYRLCHPEELVLLGHSLGIPWAPLSSCPSQALQLAGCLSQLHSGLFLYQGLLQALEGISPELGPTLDKLQLDVADFATTIWQKMEELGMAPALQPKQGAMPAFASAFQRRAGGVLVASHLQSFLEVSYRVLRHLAQP | 1 % of hG-CSF | 
2 | G-CSF variant 34Q conjugated to SPA-PEG 5000 (ligand, SPA-PEG 5000 conjugated to the available PEGylation sites) TPLGPASSLPQSFLLKCLEQVRKIQGDGAALQEQLCATYKLCHPEELVLLGHSLGIPWAPLSSCPSQALQLAGCLSQLHSGLFLYQGLLQALEGISPELGPTLDTLQLDVADFATTIWQQMEELGMAPALQPTQGAMPAFASAFQRRAGGVLVASHLQSFLEVSYRVLRHLAQP | 1 % of hG-CSF | 
3 | G-CSF variant K16/23Q conjugated to SPA-PEG 5000 (ligand, SPA-PEG 5000 conjugated to the available PEGylation sites) TPLGPASSLPQSFLLQCLEQVRQIQGDGAALQEKLCATYKLCHPEELVLLGHSLGIPWAPLSSCPSQALQLAGCLSQLHSGLFLYQGLLQALEGISPELGPTLDTLQLDVADFATTIWQQMEELGMAPALQPTQGAMPAFASAFQRRAGGVLVASHLQSFLEVSYRVLRHLAQP | 1 % of hG-CSF | 
4 | G-CSF variant K16/23Q, non-conjugated (ligand) TPLGPASSLPQSFLLQCLEQVRQIQGDGAALQEKLCATYKLCHPEELVLLGHSLGIPWAPLSSCPSQALQLAGCLSQLHSGLFLYQGLLQALEGISPELGPTLDTLQLDVADFATTIWQQMEELGMAPALQPTQGAMPAFASAFQRRAGGVLVASHLQSFLEVSYRVLRHLAQP |  | 80 % of hG-CSF
5 | G-CSF variant 34R, non-conjugated (ligand) TPLGPASSLPQSFLLKCLEQVRKIQGDGAALQERLCATYKLCHPEELVLLGHSLGIPWAPLSSCPSQALQLAGCLSQLHSGLFLYQGLLQALEGISPELGPTLDTLQLDVADFATTIWQQMEELGMAPALQPTQGAMPAFASAFQRRAGGVLVASHLQSFLEVSYRVLRHLAQP |  | 100 % of hG-CSF
6 | G-CSF variant K16/34/40R Q120K T133K S142K, non-conjugated (ligand) TPLGPASSLPQSFLLRCLEQVRKIQGDGAALQERLCATYRLCHPEELVLLGHSLGIPWAPLSSCPSQALQLAGCLSQLHSGLFLYQGLLQALEGISPELGPTLDTLQLDVADFATTIWQKMEELGMAPALQPKQGAMPAFAKAFQRRAGGVLVASHLQSFLEVSYRVLRHLAQP |  | 10 % of hG-CSF
7 | G-CSF variant 40R conjugated to SPA-PEG 5000 (ligand, SPA-PEG 5000 conjugated to the available PEGylation sites) TPLGPASSLPQSFLLKCLEQVRKIQGDGAALQEKLCATYRLCHPEELVLLGHSLGIPWAPLSSCPSQALQLAGCLSQLHSGLFLYQGLLQALEGISPELGPTLDTLQLDVADFATTIWQQMEELGMAPALQPTQGAMPAFASAFQRRAGGVLVASHLQSFLEVSYRVLRHLAQP | 1 % of hG-CSF | 
8 | G-CSF variant 40R, non-conjugated (ligand) TPLGPASSLPQSFLLKCLEQVRKIQGDGAALQEKLCATYRLCHPEELVLLGHSLGIPWAPLSSCPSQALQLAGCLSQLHSGLFLYQGLLQALEGISPELGPTLDTLQLDVADFATTIWQQMEELGMAPALQPTQGAMPAFASAFQRRAGGVLVASHLQSFLEVSYRVLRHLAQP |  | 50 % of hG-CSF
9 | G-CSF variant K16/23R, non-conjugated (ligand) TPLGPASSLPQSFLLRCLEQVRRIQGDGAALQEKLCATYKLCHPEELVLLGHSLGIPWAPLSSCPSQALQLAGCLSQLHSGLFLYQGLLQALEGISPELGPTLDTLQLDVADFATTIWQQMEELGMAPALQPTQGAMPAFASAFQRRAGGVLVASHLQSFLEVSYRVLRHLAQP |  | 100 % of hG-CSF
10 | G-CSF variant 34Q, non-conjugated (ligand) TPLGPASSLPQSFLLKCLEQVRKIQGDGAALQEQLCATYKLCHPEELVLLGHSLGIPWAPLSSCPSQALQLAGCLSQLHSGLFLYQGLLQALEGISPELGPTLDTLQLDVADFATTIWQQMEELGMAPALQPTQGAMPAFASAFQRRAGGVLVASHLQSFLEVSYRVLRHLAQP |  | 70 % of hG-CSF
11 | G-CSF variant 34R conjugated to SPA-PEG 5000 (ligand, SPA-PEG 5000 conjugated to the available PEGylation sites) TPLGPASSLPQSFLLKCLEQVRKIQGDGAALQERLCATYKLCHPEELVLLGHSLGIPWAPLSSCPSQALQLAGCLSQLHSGLFLYQGLLQALEGISPELGPTLDTLQLDVADFATTIWQQMEELGMAPALQPTQGAMPAFASAFQRRAGGVLVASHLQSFLEVSYRVLRHLAQP | 1 % of hG-CSF | 
12 | G-CSF variant K34/40R conjugated to SPA-PEG 5000 (ligand, SPA-PEG 5000 conjugated to the available PEGylation sites) TPLGPASSLPQSFLLKCLEQVRKIQGDGAALQERLCATYRLCHPEELVLLGHSLGIPWAPLSSCPSQALQLAGCLSQLHSGLFLYQGLLQALEGISPELGPTLDTLQLDVADFATTIWQQMEELGMAPALQPTQGAMPAFASAFQRRAGGVLVASHLQSFLEVSYRVLRHLAQP | 5 % of hG-CSF | 
13 | G-CSF variant K16/23R conjugated to SPA-PEG 5000 (ligand, SPA-PEG 5000 conjugated to the available PEGylation sites) TPLGPASSLPQSFLLRCLEQVRRIQGDGAALQEKLCATYKLCHPEELVLLGHSLGIPWAPLSSCPSQALQLAGCLSQLHSGLFLYQGLLQALEGISPELGPTLDTLQLDVADFATTIWQQMEELGMAPALQPTQGAMPAFASAFQRRAGGVLVASHLQSFLEVSYRVLRHLAQP | 1 % of hG-CSF | 
14 | G-CSF variant K16/34/40R Q120K T133K S142K conjugated to SPA-PEG 5000 (ligand, SPA-PEG 5000 conjugated to the available PEGylation sites) TPLGPASSLPQSFLLRCLEQVRKIQGDGAALQERLCATYRLCHPEELVLLGHSLGIPWAPLSSCPSQALQLAGCLSQLHSGLFLYQGLLQALEGISPELGPTLDTLQLDVADFATTIWQKMEELGMAPALQPKQGAMPAFAKAFQRRAGGVLVASHLQSFLEVSYRVLRHLAQP | 1 % of hG-CSF | 
15 | G-CSF variant K34/40R, non-conjugated (ligand) TPLGPASSLPQSFLLKCLEQVRKIQGDGAALQERLCATYRLCHPEELVLLGHSLGIPWAPLSSCPSQALQLAGCLSQLHSGLFLYQGLLQALEGISPELGPTLDTLQLDVADFATTIWQQMEELGMAPALQPTQGAMPAFASAFQRRAGGVLVASHLQSFLEVSYRVLRHLAQP |  | 50 % of hG-CSF
16 | G-CSF variant 34A conjugated to SPA-PEG 5000 (ligand, SPA-PEG 5000 conjugated to the available PEGylation sites) TPLGPASSLPQSFLLKCLEQVRKIQGDGAALQEALCATYKLCHPEELVLLGHSLGIPWAPLSSCPSQALQLAGCLSQLHSGLFLYQGLLQALEGISPELGPTLDTLQLDVADFATTIWQQMEELGMAPALQPTQGAMPAFASAFQRRAGGVLVASHLQSFLEVSYRVLRHLAQP | 1 % of hG-CSF | 
17 | G-CSF variant 34A, non-conjugated (ligand) TPLGPASSLPQSFLLKCLEQVRKIQGDGAALQEALCATYKLCHPEELVLLGHSLGIPWAPLSSCPSQALQLAGCLSQLHSGLFLYQGLLQALEGISPELGPTLDTLQLDVADFATTIWQQMEELGMAPALQPTQGAMPAFASAFQRRAGGVLVASHLQSFLEVSYRVLRHLAQP |  | 80 % of hG-CSF
18 | G-CSF with N-terminal Histidine tag, non-conjugated (ligand) MKHQHQHQHQHQHQQTPLGPASSLPQSFLLKCLEQVRKIQGDGAALQEKLCATYKLCHPEELVLLGHSLGIPWAPLSSCPSQALQLAGCLSQLHSGLFLYQGLLQALEGISPELGPTLDTLQLDVADFATTIWQQMEELGMAPALQPTQGAMPAFASAFQRRAGGVLVASHLQSFLEVSYRVLRHLAQP |  | 10 % of hG-CSF
